Measurements taken from article PMC8401544, “Cytotoxicity of Frutalin on Distinct Cancer Cells Is Independent of Its Glycosylation” (Molecules, 2021).

B1: Frutalin produced in E. coli in fusion with TrxA (TrxFTL) (natural protein, Artocarpus incisa)
chain: SSGENLYFQGAMGNQQSGKSQTVIVGPWGAKVSTSSNGKAFDDGAFTGIREINLSYNKETAIGDFQVVYDLNGSPYVGQNHKSFITGFTPVKISLDFPSEYIMEVSGYTGNVSGYVVVRSLTFKTNKKTYGPYGVTSGTPFNLPIENGLIVGFKGSIGYWLDYFSMYLSL
notes: 13 extra amino acids between the 6xHistag and frutalin; not glycosylated; Vector pETM20; also called FTL in fusion with TrxA; source: E. coli BL21(DE3) (NZYBL21), purified (IMAC, Nickel HisTrap); not shown: TrxA, N-terminal, kept; His6, internal (between TrxA and the TEV recognition site), kept
B2: Frutalin produced in E. coli cleaved from TrxFTL (cFTL) (natural protein, Artocarpus incisa)
chain: GAMGNQQSGKSQTVIVGPWGAKVSTSSNGKAFDDGAFTGIREINLSYNKETAIGDFQVVYDLNGSPYVGQNHKSFITGFTPVKISLDFPSEYIMEVSGYTGNVSGYVVVRSLTFKTNKKTYGPYGVTSGTPFNLPIENGLIVGFKGSIGYWLDYFSMYLSL
notes: residues left after TEV cleavage (GA) and MG from the cloning restriction site; not glycosylated; 17421.61 Da by calculation; also called cleaved FTL; FTL cleaved from TrxFTL; source: E. coli BL21(DE3) (NZYBL21), purified (IMAC, TEV digestion, reverse IMAC on Ni-NTA); not shown: TrxA, N-terminal, cleaved; His6, N-terminal, cleaved

Target: the molecule itself
Assay: dynamic light scattering; protein at 0.8-1.0 mg/mL in phosphate buffer, room temperature, filtered through 0.45 um; size distribution by intensity; measured diameter compared with that expected from the theoretical MW of a tetramer

Protein	stoichiometry N
B1	4
B2	4
